The supplement of paper PMC7125110
± gives the standard error. Variants at the floor of the assay were thinned out.

B1: glmS ribozyme (parent)
chain: AUAAAAGCGCCAGAACUACAGAAAUGUAGUUGACGAGGAGGAGGUUUAUCGAAUUUUCGGCGGAUGCCUCCAAA

Assays:
Details in all cases: with glucosamine-6-phosphate
[1] = variants of: B1; assay: self-cleavage kobs at 40 uM GlcN6P; higher = faster cleavage; RNA array
In short: (§1)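 kobs was derived by fitting per-tile medians to one- or two-exponential decays after normalising signals to baseline and to non-cleaving reference variants. Those signals came from barcoded ribozyme variants transcribed in situ by E. coli RNA polymerase on sequenced MiSeq chips, followed through a hybridised Cy3 probe at 37 °C and imaged over ~14 h. Glucosamine-6-phosphate (40 μM to 10 mM) in HEPES/KCl/Mg(OAc)2 buffer was flowed in. Weighted Michaelis–Menten fits across concentrations then gave kcat and KM.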

[2] = variants of: B1; assay: self-cleavage kobs at 160 uM GlcN6P; higher = faster cleavage; RNA array
In short: as §1

[3] = variants of: B1; assay: self-cleavage kobs at 640 uM GlcN6P; higher = faster cleavage; RNA array
In short: as §1

[4] = variants of: B1; assay: self-cleavage kobs at 2500 uM GlcN6P; higher = faster cleavage; RNA array
In short: as §1

[5] = variants of: B1; assay: self-cleavage kobs at 10000 uM GlcN6P; higher = faster cleavage; RNA array
In short: as §1

With A48U G60U the “self-cleavage kobs at 40 uM GlcN6P” value [1] was less than 1e-05 s⁻¹, the “self-cleavage kobs at 160 uM GlcN6P” value [2] was less than 1e-05 s⁻¹ and the “self-cleavage kobs at 640 uM GlcN6P” value [3] was less than 1e-05 s⁻¹. The “self-cleavage kobs at 2500 uM GlcN6P” value [4] was less than 1e-05 s⁻¹ and the “self-cleavage kobs at 10000 uM GlcN6P” value [5] was less than 1e-05 s⁻¹.

With U47A U54C the “self-cleavage kobs at 40 uM GlcN6P” value [1] was 0.000843 ± 0.0002 s⁻¹, the “self-cleavage kobs at 160 uM GlcN6P” value [2] was 0.00125 ± 0.00029 s⁻¹ and the “self-cleavage kobs at 640 uM GlcN6P” value [3] was 0.00582 ± 0.0015 s⁻¹. The “self-cleavage kobs at 2500 uM GlcN6P” value [4] was 0.014 ± 0.0038 s⁻¹.

For U31C U57G, the “self-cleavage kobs at 40 uM GlcN6P” value [1] was less than 1e-05 s⁻¹.

With A39C G44A G60U C68U the “self-cleavage kobs at 40 uM GlcN6P” value [1] was less than 1e-05 s⁻¹.

With C10A G40A the “self-cleavage kobs at 40 uM GlcN6P” value [1] was less than 1e-05 s⁻¹, the “self-cleavage kobs at 160 uM GlcN6P” value [2] was less than 1e-05 s⁻¹ and the “self-cleavage kobs at 640 uM GlcN6P” value [3] was less than 1e-05 s⁻¹. For the same variant, the “self-cleavage kobs at 2500 uM GlcN6P” value [4] was less than 1e-05 s⁻¹ and the “self-cleavage kobs at 10000 uM GlcN6P” value [5] was less than 1e-05 s⁻¹.

U30A C50G was tested, and the “self-cleavage kobs at 40 uM GlcN6P” value [1] was 3.17e-05 ± 1.5e-05 s⁻¹, the “self-cleavage kobs at 160 uM GlcN6P” value [2] was 6.28e-05 ± 1.6e-05 s⁻¹ and the “self-cleavage kobs at 640 uM GlcN6P” value [3] was 0.00128 ± 0.0005 s⁻¹. The “self-cleavage kobs at 2500 uM GlcN6P” value [4] was 6.93e-05 ± 1.6e-05 s⁻¹.

With G7U C8A U47G G60U the “self-cleavage kobs at 40 uM GlcN6P” value [1] was less than 1e-05 s⁻¹ and the “self-cleavage kobs at 10000 uM GlcN6P” value [5] was less than 1e-05 s⁻¹.

For G13A A14U U31C, the “self-cleavage kobs at 40 uM GlcN6P” value [1] was 7.34e-05 ± 1.8e-05 s⁻¹.

In the case of G13C A36C U46G C68A, the “self-cleavage kobs at 40 uM GlcN6P” value [1] is reported as less than 1e-05 s⁻¹ and the “self-cleavage kobs at 10000 uM GlcN6P” value [5] is reported as less than 1e-05 s⁻¹.

A36U C70G was tested, and the “self-cleavage kobs at 40 uM GlcN6P” value [1] was 3.74e-05 ± 8.5e-06 s⁻¹, the “self-cleavage kobs at 160 uM GlcN6P” value [2] was 2.91e-05 ± 1.4e-05 s⁻¹ and the “self-cleavage kobs at 640 uM GlcN6P” value [3] was 0.000403 ± 6.8e-05 s⁻¹.

For C10U C16U U47C U65C, the “self-cleavage kobs at 40 uM GlcN6P” value [1] was less than 1e-05 s⁻¹.

For A14U A53U C71U, the “self-cleavage kobs at 40 uM GlcN6P” value [1] was 9.83e-05 ± 2.7e-05 s⁻¹, the “self-cleavage kobs at 160 uM GlcN6P” value [2] was 0.00021 ± 4.5e-05 s⁻¹ and the “self-cleavage kobs at 640 uM GlcN6P” value [3] was 0.000509 ± 8.6e-05 s⁻¹. For the same variant, the “self-cleavage kobs at 2500 uM GlcN6P” value [4] was 0.00145 ± 0.00032 s⁻¹ and the “self-cleavage kobs at 10000 uM GlcN6P” value [5] was 0.00546 ± 0.0013 s⁻¹.

In the case of A53U U55C, the “self-cleavage kobs at 40 uM GlcN6P” value [1] is reported as 0.000338 ± 7.3e-05 s⁻¹, the “self-cleavage kobs at 160 uM GlcN6P” value [2] is reported as 0.00118 ± 0.0004 s⁻¹ and the “self-cleavage kobs at 640 uM GlcN6P” value [3] is reported as 0.00434 ± 0.00089 s⁻¹. For the same variant, the “self-cleavage kobs at 2500 uM GlcN6P” value [4] was 0.00602 ± 0.0019 s⁻¹ and the “self-cleavage kobs at 10000 uM GlcN6P” value [5] was 0.0266 ± 0.0065 s⁻¹.

In the case of C8A A14G C58U, the “self-cleavage kobs at 40 uM GlcN6P” value [1] is reported as less than 1e-05 s⁻¹ and the “self-cleavage kobs at 10000 uM GlcN6P” value [5] is reported as less than 1e-05 s⁻¹.

In the case of G7U C16G, the “self-cleavage kobs at 40 uM GlcN6P” value [1] is reported as less than 1e-05 s⁻¹, the “self-cleavage kobs at 640 uM GlcN6P” value [3] is reported as less than 1e-05 s⁻¹ and the “self-cleavage kobs at 10000 uM GlcN6P” value [5] is reported as less than 1e-05 s⁻¹.

With U56G G62U C68G the “self-cleavage kobs at 40 uM GlcN6P” value [1] was less than 1e-05 s⁻¹ and the “self-cleavage kobs at 10000 uM GlcN6P” value [5] was less than 1e-05 s⁻¹.

U47C G63C was tested, and the “self-cleavage kobs at 40 uM GlcN6P” value [1] was less than 1e-05 s⁻¹, the “self-cleavage kobs at 640 uM GlcN6P” value [3] was less than 1e-05 s⁻¹ and the “self-cleavage kobs at 2500 uM GlcN6P” value [4] was less than 1e-05 s⁻¹. For the same variant, the “self-cleavage kobs at 10000 uM GlcN6P” value [5] was less than 1e-05 s⁻¹.

With A12U C68G C70G the “self-cleavage kobs at 40 uM GlcN6P” value [1] was less than 1e-05 s⁻¹.

U54G A64C C67A C70U was tested, and the “self-cleavage kobs at 40 uM GlcN6P” value [1] was 0.000151 ± 5.2e-05 s⁻¹, the “self-cleavage kobs at 160 uM GlcN6P” value [2] was 0.000348 ± 0.00013 s⁻¹ and the “self-cleavage kobs at 640 uM GlcN6P” value [3] was 0.000556 ± 0.00017 s⁻¹. The “self-cleavage kobs at 2500 uM GlcN6P” value [4] was 0.000241 ± 0.0001 s⁻¹ and the “self-cleavage kobs at 10000 uM GlcN6P” value [5] was 4.58e-05 ± 1.8e-05 s⁻¹.

With A52C G62C the “self-cleavage kobs at 40 uM GlcN6P” value [1] was less than 1e-05 s⁻¹, the “self-cleavage kobs at 160 uM GlcN6P” value [2] was less than 1e-05 s⁻¹ and the “self-cleavage kobs at 640 uM GlcN6P” value [3] was less than 1e-05 s⁻¹. For the same variant, the “self-cleavage kobs at 2500 uM GlcN6P” value [4] was less than 1e-05 s⁻¹ and the “self-cleavage kobs at 10000 uM GlcN6P” value [5] was less than 1e-05 s⁻¹.

C8G U45C was tested, and the “self-cleavage kobs at 40 uM GlcN6P” value [1] was less than 1e-05 s⁻¹, the “self-cleavage kobs at 160 uM GlcN6P” value [2] was less than 1e-05 s⁻¹ and the “self-cleavage kobs at 640 uM GlcN6P” value [3] was less than 1e-05 s⁻¹. For the same variant, the “self-cleavage kobs at 2500 uM GlcN6P” value [4] was less than 1e-05 s⁻¹ and the “self-cleavage kobs at 10000 uM GlcN6P” value [5] was less than 1e-05 s⁻¹.
